Tests used:
[1] = target: T1, rat trkA recombinantly expressed on NIH3T3 cells (rat, UniProt P35739 33-799); experiment: 125I-hNGF displacement, NIH3T3-trkA cells, 4 C
T1 construct: whole, on cells; also called NIH3T3-trkA; p140trkA

[2] = target: T1, rat trkA recombinantly expressed on …; experiment: cell-based or functional assay
[3] = target: trkA on parental PC12 cells (rat, UniProt P35739 33-799); experiment: cell-based or functional assay
[4] = target: T2, p75 on A875 human melanoma cells (human, UniProt P08138 29-427); experiment: 125I-hNGF displacement, A875 cells (p75), 4 C
T2 construct: whole, on cells; also called A875-p75
T2 sequence (looked up): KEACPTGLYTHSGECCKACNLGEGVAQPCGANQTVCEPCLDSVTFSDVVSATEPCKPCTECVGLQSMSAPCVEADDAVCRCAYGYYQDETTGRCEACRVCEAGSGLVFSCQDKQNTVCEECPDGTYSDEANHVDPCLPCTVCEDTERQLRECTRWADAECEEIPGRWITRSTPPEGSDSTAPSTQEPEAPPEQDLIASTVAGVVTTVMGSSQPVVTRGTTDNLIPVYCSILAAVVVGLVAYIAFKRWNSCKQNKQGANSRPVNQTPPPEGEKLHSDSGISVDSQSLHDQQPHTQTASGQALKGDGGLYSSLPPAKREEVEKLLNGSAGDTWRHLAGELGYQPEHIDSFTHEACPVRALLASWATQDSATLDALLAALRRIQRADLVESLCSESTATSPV

Chain of trkA on parental PC12 cells (P35739 33-799): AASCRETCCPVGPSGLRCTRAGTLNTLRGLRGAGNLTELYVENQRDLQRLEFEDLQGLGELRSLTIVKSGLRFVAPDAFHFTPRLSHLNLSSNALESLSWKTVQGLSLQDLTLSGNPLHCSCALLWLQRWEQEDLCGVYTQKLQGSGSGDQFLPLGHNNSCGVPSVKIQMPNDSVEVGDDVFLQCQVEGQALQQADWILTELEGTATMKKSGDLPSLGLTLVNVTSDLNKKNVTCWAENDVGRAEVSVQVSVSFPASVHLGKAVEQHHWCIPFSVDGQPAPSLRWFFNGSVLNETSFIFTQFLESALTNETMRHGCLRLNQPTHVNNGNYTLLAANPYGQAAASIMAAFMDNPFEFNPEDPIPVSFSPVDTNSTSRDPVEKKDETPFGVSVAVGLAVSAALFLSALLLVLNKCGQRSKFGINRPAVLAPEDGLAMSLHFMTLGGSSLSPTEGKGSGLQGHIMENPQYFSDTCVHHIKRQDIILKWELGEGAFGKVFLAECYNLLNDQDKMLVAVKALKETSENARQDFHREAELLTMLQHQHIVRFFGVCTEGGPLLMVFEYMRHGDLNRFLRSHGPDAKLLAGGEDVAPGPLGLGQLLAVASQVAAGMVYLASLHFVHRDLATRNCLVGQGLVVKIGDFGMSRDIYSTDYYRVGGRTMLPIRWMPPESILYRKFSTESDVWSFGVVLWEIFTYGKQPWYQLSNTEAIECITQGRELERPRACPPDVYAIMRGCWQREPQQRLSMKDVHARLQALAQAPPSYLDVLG
T1 sequence (P35739 33-799): as above

IC50 mut/NGF [1]: > 40 ratio | trkA autophosphorylation, maximal level at 1 × 10^-8 M, mutant/hNGF [2]: 0.07 ratio | PC12 neurite outgrowth EC50 [3]: 0.016 µg/mL | PC12 neurite outgrowth EC50 mutant/hNGF [3]: 114 ratio | IC50 [4]: 0.21 nM | IC50 mut/NGF [4]: 1 ratio
B1: hNGF Mut 5 (hBDNF N-terminal chimeric mutant) (ligand)
chain: HSDPAHRGEFSVCDSVSVWVGDKTTATDIKGKEVMVLGEVNINNSVFKQYFFETKCRDPNPVDSGCRGIDSKHWNSYCTTTHTFVKALTMDGKQAAWRFIRIDTACVCVLSRKAVRRA

Reference: patent publication US7144983 (Genentech, dated 2006)
